The source of these data is publication PMC9251316, “Engineering the Active Site Pocket to Enhance the Catalytic Efficiency of a Novel Feruloyl Esterase Derived From Human Intestinal Bacteria Dorea formicigenerans” (Frontiers in Bioengineering and Biotechnology, 2022).

Changes are numbered by the printed parent chain. Numbers in names are those of the source.

The chains are these.
B1: DfFAE (Dorea formicigenerans; V252A) (protein)
chain: MNQKKECMDVHVNGLKFHVQTFGSGVPIIMIMGLGAPGDKWKHNYELLSKWFWCIVPDNRGAGLSDKPEAESYTTEQMADDIIGIMDALDIKKAHVMGVSMGGAIAQQVALKVPDRVLSLILTSTFASVSPAFKKALNLICELKEDTDPAVLKQLNLWMTYGQYTQIHHPEKIEKSIEEDAAYPYPMPVYAYKAQCGACLSHNTAGRLHELKMPVLIAAGAKDLFMNIEKTMELVHGIPQAEFYLAPEGGHAHQWEYPEPYDSVVVGFLMKHTN
notes: E. coli T7; trimeric by SEC (117 kDa)
B2: DfFAE (Dorea formicigenerans; P149A) (protein)
chain: B1 chain with P149A, A252V
notes: as for B1
B3: DfFAE (Dorea formicigenerans; W255A) (protein)
chain: B1 chain with A252V, W255A
notes: as for B1
B4: DfFAE (Dorea formicigenerans) (protein)
chain: B1 chain with A252V
notes: as for B1
B5: DfFAE (Dorea formicigenerans; N156A) (protein)
chain: B1 chain with N156A, A252V
notes: as for B1
B6: DfFAE (Dorea formicigenerans; P186A) (protein)
chain: B1 chain with P186A, A252V
notes: as for B1

For the first data set, the target named is feruloyl esterase from Dorea formicigenerans (DfFAE) (Dorea formicigenerans). In words: SEC; Superdex 200 Increase 10/300 GL; elution volume 12.9 ml; mass markers conalbumin 75 kDa and aldolase 158 kDa; apparent MW about 117 kDa.
Details: not given
(In general: In gel filtration, larger molecules generally elute earlier.)
As to “feruloyl esterase from Dorea formicigenerans (DfFAE) (enzyme)”, the stoichiometry N is 3.

Substrate in the next data set: CCCCCCCC(=O)Oc1ccc([N+](=O)[O-])cc1
In words: purified protein. The format is biochemical, Dorea formicigenerans. The note with it: 10 mM Tris-HCl pH 8.4, 2.5% Triton X-100, 40 °C.
With B1, the Km worked out at 99.87 ± 18.76 µM, the kcat was 0.52 ± 0.018 s⁻¹ and the kcat/Km is 5200 ± 222 M⁻¹ s⁻¹.

Turning to B2, the Km came out at 428.8 ± 35.31 µM, the kcat was 1.08 ± 0.0243 s⁻¹ and the catalytic efficiency (kcat/Km) turned out to be 2510 ± 105 M⁻¹ s⁻¹.

Take B3: the Km worked out at 178.2 ± 13.66 µM, the kcat is 2.87 ± 0.0543 s⁻¹ and the kcat/Km was 16100 ± 95.6 M⁻¹ s⁻¹.

As for B4, the Michaelis constant (Km) stood at 526.2 ± 73.57 µM, the kcat was found to be 0.186 ± 0.00865 s⁻¹ and the kcat/Km was 354 ± 186 M⁻¹ s⁻¹.

Substrate in another data set: CCCC(=O)Oc1ccc([N+](=O)[O-])cc1
Kind of data set: purified protein. The format is biochemical, Dorea formicigenerans. The settings on record: 10 mM Tris-HCl pH 8.4, 2.5% Triton X-100, 40 °C.
For B5, the Km was found to be 334.3 ± 43.69 µM, the kcat was 2.85 ± 0.0997 s⁻¹ and the kcat/Km was 8520 ± 166 M⁻¹ s⁻¹.

B1: the Km is 83.61 ± 8.65 µM, the kcat came to 1.07 ± 0.0216 s⁻¹ and the kcat/Km was found to be 12830 ± 124 M⁻¹ s⁻¹.

Turning to B4, the Michaelis-Menten constant (Km) is 357.3 ± 68.62 µM, the kcat amounted to 0.798 ± 0.0436 s⁻¹ and the kcat/Km was 2230 ± 247 M⁻¹ s⁻¹.

Substrate in a further data set: CC(=O)Oc1ccc([N+](=O)[O-])cc1
Kind of data set: purified protein. The format is biochemical, Dorea formicigenerans. The note with it: 10 mM Tris-HCl pH 8.4, 2.5% Triton X-100, 40 °C.
Turning to B5, the Km was determined as 644.7 ± 40.59 µM, the kcat amounted to 14.8 ± 0.333 s⁻¹ and the kcat/Km came to 22940 ± 85.5 M⁻¹ s⁻¹.

On to B1, for which the Michaelis-Menten constant (Km) worked out at 288.9 ± 53.8 µM, the catalytic constant (kcat) amounted to 12.8 ± 0.51 s⁻¹ and the kcat/Km was 44130 ± 226 M⁻¹ s⁻¹.

For the molecule B2, the Km is 803.7 ± 107.8 µM, the kcat came to 17.4 ± 0.809 s⁻¹ and the kcat/Km worked out at 21690 ± 181 M⁻¹ s⁻¹.

Take B3: the Km was 809.7 ± 182.4 µM, the kcat came out at 12.1 ± 0.891 s⁻¹ and the kcat/Km turned out to be 14900 ± 299 M⁻¹ s⁻¹.

B6: the Km was found to be 824 ± 242.1 µM, the kcat was determined as 11.3 ± 1.21 s⁻¹ and the kcat/Km turned out to be 13700 ± 400 M⁻¹ s⁻¹.

Take B4: the Km was 572 ± 56.57 µM, the kcat was found to be 4.42 ± 0.165 s⁻¹ and the kcat/Km is 7730 ± 136 M⁻¹ s⁻¹.

As usually defined, the stoichiometry N is a count of units in the complex or per binding partner. Usually Km stands for the substrate concentration at which the rate is half of its maximum. By kcat is commonly meant the maximal rate divided by the concentration of active sites. One may read the kcat/Km as the second-order rate constant that governs catalysis at low substrate concentration.
